± gives the uncertainty stated by the source.
Tested on: HEK293T
Experiment: plasma membrane surface immunostaining intensity (anti-HA, deep receptor scanning) (arbitrary fluorescence units); higher = higher plasma membrane expression

Sequence | plasma membrane surface immunostaining intensity (GPCR class: A (Olfactory)) | further results
MKANYSAEERFLLLGFSDWPSLQPVLFALVLLCYLLTLTGNSALVLLAVRDPRLHTPMYYFLCHLALVDAGFTTSVVPPLLANLRGPALWLPRSHCTAQLCASLALGSAECVLLAVMALDRAAAVCRPLRYAGLVSPRLCRTLASASWLSGLTNSVAQTALLAERPLCAPRLLDHFICELPALLKLACGGDGDTTENQMFAARVVILLLPFAVILASYGAVARAVCCMRFSGGRRRAVGTCGSHLTAVCLFYGSAIYTYLQPAQRYNQARGKFVSLFYTVVTPALNPLIYTLRNKKVKGAARRLLRSLGRGQAGQ [OR2I1P] | 132 ± 5.4 | –
MLGLNHTSMSEFILVGFSAFPHLQLMLFLLFLLMYLFTLLGNLLIMATVWSERSLHTPMYLFLCVLSVSEILYTVAIIPRMLADLLSTQRSIAFLACASQMFFSFSFGFTHSFLLTVMGYDRYVAICHPLRYNVLMSPRGCACLVGCSWAGGSVMGMVVTSAIFQLTFCGSHEIQHFLCHVPPLLKLACGNNVPAVALGVGLVCIMALLGCFLLILLSYAFIVADILKIPSAEGRNKAFSTCASHLIVVIVHYGFASVIYLKPKGPHSQEGDTLMATTYAVLTPFLSPIIFSLRNKELKVAMKRTFLSTLYSSGT [OR10H2] | 112 ± 22 | –
MGFLSPMHPCRPPTQRRMAAGNHSTVTEFILKGLTKRADLQLPLFLLFLGIYLVTIVGNLGMITLICLNSQLHTPMYYFLSNLSLMDLCYSSVITPKMLVNFVSEKNIISYAGCMSQLYFFLVFVIAECYMLTVMAYDRYVAICHPLLYNIIMSHHTCLLLVAVVYAIGLIGSTIETGLMLKLPYCEHLISHYFCDILPLMKLSCSSTYDVEMTVFFSAGFNIIVTSLTVLVSYTFILSSILGISTTEGRSKAFSTCSSHLAAVGMFYGSTAFMYLKPSTISSLTQENVASVFYTTVIPMLNPLIYSLRNKEVKAAVQKTLRGKLF [OR8A1] | 191 ± 82 | –
MALLLVSLLAFLSLGSGCHHRICHCSNRVFLCQESKVTEIPSDLPRNAIELRFVLTKLRVIQKGAFSGFGDLEKIEISQNDVLEVIEADVFSNLPKLHEIRIEKANNLLYINPEAFQNLPNLQYLLISNTGIKHLPDVHKIHSLQKVLLDIQDNINIHTIERNSFVGLSFESVILWLNKNGIQEIHNCAFNGTQLDELNLSDNNNLEELPNDVFHGASGPVILDISRTRIHSLPSYGLENLKKLRARSTYNLKKLPTLEKLVALMEASLTYPSHCCAFANWRRQISELHPICNKSILRQEVDYMTQARGQRSSLAEDNESSYSRGFDMTYTEFDYDLCNEVVDVTCSPKPDAFNPCEDIMGYNILRVLIWFISILAITGNIIVLVILTTSQYKLTVPRFLMCNLAFADLCIGIYLLLIASVDIHTKSQYHNYAIDWQTGAGCDAAGFFTVFASELSVYTLTAITLERWHTITHAMQLDCKVQLRHAASVMVMGWIFAFAAALFPIFGISSYMKVSICLPMDIDSPLSQLYVMSLLVLNVLAFVVICGCYIHIYLTVRNPNIVSSSSDTRIAKRMAMLIFTDFLCMAPISFFAISASLKVPLITVSKAKILLVLFHPINSCANPFLYAIFTKNFRRDFFILLSKCGCYEMQAQIYRTETSSTVHNTHPRNGHCSSAPRVTSGSTYILVPLSHLAQN [FSHR] | – | plasma membrane surface immunostaining intensity (GPCR class: A): 378 ± 44
MGMEGLLQNSTNFVLTGLITHPAFPGLLFAVVFSIFVVAITANLVMILLIHMDSRLHTPMYFLLSQLSIMDTIYICITVPKMLQDLLSKDKTISFLGCAVQIFYLTLIGGEFFLLGLMAYDRYVAVCNPLRYPLLMNRRVCLFMVVGSWVGGSLDGFMLTPVTMSFPFCRSREINHFFCEIPAVLKLSCTDTSLYETLMYACCVLMLLIPLSVISVSYTHILLTVHRMNSAEGRRKAFATCSSHIMVVSVFYGAAFYTNVLPHSYHTPEKDKVVSAFYTILTPMLNPLIYSLRNKDVAAALRKVLGRCGSSQSIRVATVIRKG [OR2T35] | 126 ± 14 | –
MVGDTLKLLSPLMTRYFFLLFYSTDSSDLNENQHPLDFDEMAFGKVKSGISFLIQTGVGILGNSFLLCFYNLILFTGHKLRPTDLILSQLALANSMVLFFKGIPQTMAAFGLKYLLNDTGCKFVFYYHRVGTRVSLSTICLLNGFQAIKLNPSICRWMEIKIRSPRFIDFCCLLCWAPHVLMNASVLLLVNGPLNSKNSSAKNNYGYCSYKASKRFSSLHAVLYFSPDFMSLGFMVWASGSMVFFLYRHKQQVQHNHSNRLSCRPSQEARATHTIMVLVSSFFVFYSVHSFLTIWTTVVANPGQWIVTNSVLVASCFPARSPFVLIMSDTHISQFCFACRTRKTLFPNLVVMP [VN1R1] | – | plasma membrane surface immunostaining intensity (GPCR class: Vomeronasal): 140 ± 8.3

Reference: the supplement of paper PMC12458215
